{
  "source": "paper PMC3600088",
  "origin": "cited, not measured here",
  "target": "Protective antigen (PA) (Bacillus anthracis) (UniProt P13423)",
  "data": [
    {"substance": "CMG2 (from UniProt P58335)", "values": [
      {"measurement": "Kd", "value": "> 0.17", "unit": "nM"}
    ]}
  ]
}
